Assay results from patent US20230067770A1 (SHANGHAI HENLIUS BIOTECH, published 2023).

B1: hybridoma anti-CD137 antibody clone 3.10 (antibody, V domains shown)
VH: EVQLVESGPGLVAPSQSLSITCTVSGFSLTTYDVSWIRQPPGKGLEWLGVIWTGGGTNYNSTFMSRLTISKDNSKNQVFLKMNSLQTDDTATYYCVRVDYWGQGTTLTVSR
VL: DVVMTQTPLSLPVSLGGHASISCRSSQSLVHNNGNTYLHWFLQKPGQSPKLLIYKVSNRFSGVPDRFSGSGSGTDFTLKISRVEAEDLGVYFCSQNAHVPWTFGGGTKLEIKR
notes: Tested as hybridoma supernatant
B2: hybridoma anti-CD137 antibody clone 6.62 (antibody, V domains shown)
VH: QIQLVQSGPELKKPGETVKISCKASGYSFTDYSIHWVKQAPGKGLKWMGWMNTETGEPAYADDFKGRFAFSLETAASTAYLQINHLRDEDTATYFCTRSSYGYFDYWGQGTTLTVSS
VL: DVVMTQTPLSLPVSLGDQAAISCRSSQTLEHINGNTYLEWYLQKPGQSPKLLIYKVSDRFSGVPDRFSGSGSGTGFTLKISRVEAEDLGVYYCFQGSHFPLTFGGGTKLELK
notes: as for B1
B3: hybridoma anti-CD137 antibody clone 29.39 (antibody, V domains shown)
VH: EVKLMESGAELVKPGASVKLSCTASGFNIKDTYIHWVKQRPEQGLEWIGKIDPANGNTEYDLNFQGRATITADTSSNTAYLQLSSLTSEDTAVYYCTTGNLHYYLMDYWGQGTSVTSLE
VL: DIVMTQSPSSMYASLGERVTITCKASQAINTYLSWFQQKPGKSPKTLIYRANRMVDGVPSRFSGSGSGQDYSLTISSLDYEDMGIYYCLQYDDFPYTFGGGTKLEIKR
notes: as for B1
B4: hybridoma anti-CD137 antibody clone 30.19 (antibody, V domains shown)
VH: QIQLVQSGPELKKPGETVKISCKASGYSFTDYSIHWVKQAPGKGLKWMGWMNTETGEPAYADDFKGRFAFSLETAASTAYLQINHLRDEDTATYFCTRSSYGYFDYWGQGTTLTVSS
VL: DIVMTQSPSSMYASLGERVTITCKASQAINTYLSWFQQKPGKSPKTLIYRANRMVDGVPSRFSGSGSGQDYSLTISSLDYEDMGIYYCLQYDDFPYTFGGGTKLEIKR
notes: as for B1
B5: hybridoma anti-CD137 antibody clone 44.21 (antibody, V domains shown)
VH: EVKLMESGAELVKPGASVKLSCTASGFNIKDTYIHWVKQRPEQGLEWIGKIDPANGNTEYDLNFQGRATITADTSSNTAYLQLSSLTSEDTAVYYCTTGNLHYYLMDYWGQGTSVTSLE
VL: DIVMTQTPLSLPVSLGDHASISCRSSQSLVHSNGNTYLHWFLQKPGQSPKLLIYKVSNRFSGVPDRFSGSGSGTDFTLKISRVEAEDLGVYFCSQNAHVPWTFGGGTKRKSNE
notes: as for B1
B6: Clone 23 (Fab in supernatant) (Fab, V domains shown)
VH: QVQLVQSGAEVKKPGASVKVSCKASGFNIKDTYIHWVRQAPGQGLEWMGKIDPANGQTEYAQKFQGRVTMTRDTSTSTVYMELSSLRSEDTAVYYCTTGNLHYALMDYWGQGTSVTVSS
VL: DIQMTQSPSSVSASVGDRVTITCKASQAINTYLSWYQQKPGKAPKLLIYRANRMVGGVPSRFSGSGSGTDFTLTISSLQPEDFATYYCLQYRDFPYTFGGGTKLEIKR
notes: Screened as Fab in supernatant
B7: Clone 19 (Fab in supernatant) (Fab, V domains shown)
VH: QVQLVQSGAEVKKPGASVKVSCKASGFNMKDTYIHWVRQAPGQGLEWMGKIDPANGATEYAQKFQGRVTMTRDTSTSTVYMELSSLRSEDTAVYYCTTGNLHYGLMDYWGQGTSVTVSS
VL: DIQMTQSPSSVSASVGDRVTITCKASQAINTYLSWYQQKPGKAPKLLIYRANRMGDGVPSRFSGSGSGTDFTLTISSLQPEDFATYYCLQSDDFPYTFGGGTKLEIKR
notes: as for B6
B8: Clone 25 (Fab in supernatant) (Fab, V domains shown)
VH: QVQLVQSGAEVKKPGASVKVSCKASGFNIQDTYIHWVRQAPGQGLEWMGRIDPANGNSEYAQKFQGRVTMTRDTSTSTVYMELSSLRSEDTAVYYCTTGNLHYGLMDYWGQGTSVTVSS
VL: DIQMTQSPSSVSASVGDRVTITCKASQAINTYLSWYQQKPGKAPKLLIYRDNRKVDGVPSRFSGSGSGTDFTLTISSLQPEDFATYYCLQYQDFPYKFGGGTKLEIKR
notes: as for B6
B9: Clone 3 (Fab in supernatant) (Fab, V domains shown)
VH: QVQLVQSGAEVKKPGASVKVSCKASGFNPKDTYIHWVRQAPGQGLEWMGRIDPANGFTEYAQKFQGRVTMTRDTSTSTVYMELSSLRSEDTAVYYCTTGNLHYALMDYWGQGTSVTVSS
VL: DIQMTQSPSSVSASVGDRVTITCKASQAINTYLSWYQQKPGKAPKLLIYRANRMVDGVPSRFSGSGSGTDFTLTISSLQHEDFATYYCLQSDDFPYTFGGGTKLEIKR
notes: Screened as Fab in SS320 culture supernatant
B10: Clone 20 (Fab in supernatant) (Fab, V domains shown)
VH: QVQLVQSGAEVKKPGASVKVSCKASGFNMKDTYIHWVRQAPGQGLEWMGKIDPANGDTEYAQKFQGRVTMTRDTSTSTVYMELSSLRSEDTAVYYCTTGNLHYALMDYWGQGTSVTVSS
VL: DIQMTQSPSSVSASVGDRVTITCKASQAINTYLSWYQQKPGKAPKLLIYRANRAVDGVPSRFSGSGSGTDFTLTISSLQPEDFATYYCLQYLDFPYTFGGGTKLEIKR
notes: as for B6
B11: Clone 2-11 (Fab in supernatant) (Fab, V domains shown)
VH: QVQLVQSGAEVKKPGASVKVSCKASGFNIKDTYIHWVRQAPGQGLEWMGKIDPANGGTEYAQKFQGRVTMTRDTSTSTVYMELSSLRSEDTAVYYCTTGNLHYALMDYWGQGTSVTVSS
VL: DIQMTQSPSSVSASVGDRVTITCKASQPINTYLSWYQQKPGKAPKLLIYRVNRKVDGVPSRFSGSGSGTDFTLTISSLQPEDFATYYCLQYVDFPYTFGGGTKLEIKR
notes: as for B6
B12: Clone 5 (Fab in supernatant) (Fab, V domains shown)
VH: QVQLVQSGAEVKKPGASVKVSCKASGFNIRDTYIHWVRQAPGQGLEWMGKIDPANGNTEYAQKFQGRVTMTRDTSTSTVYMELSSLRSEDTAVYYCTTGNLHYGLMDYWGQGTSVTVSS
VL: DIQMTQSPSSVSASVGDRVTITCKASQAINTYHSWYQQKPGKAPKLLIYRVNRMVDGVPSRFSGSGSGTDFTLTISSLQPEDFATYYCLQYLDFPYTFGGGTKLEIKR
notes: as for B6
B13: Clone 33 (Fab in supernatant) (Fab, V domains shown)
VH: QVQLVQSGAEVKKPGASVKVSCKASGFNIKDTYIQWVRQAPGQGLEWMGKIDPANGNTMYAQKFQGRVTMTRDTSTSTVYMELSSLRSEDTAVYYCTTGNLHYALMDYWGQGTSVTVSS
VL: DIQMTQSPSSVSASVGDRVTITCKASQTINTYLSWYQQKPGKAPKLLIYRANRMPDGVPSRFSGSGSGTDFTLTISSLQPEDFATYYCLQYDDFPYTFGGGTKLEIKR
notes: as for B6
B14: Clone 18 (Fab in supernatant) (Fab, V domains shown)
VH: QVQLVQSGAEVKKPGASVKVSCQASGFNIKDTYIHWVRQAPGQGLGWMGKIDPANGMTEYAQKFQGRVTVTRDTSTSTVYMELSSLRSEDTAVYYCTTGNLHYALMDYWGQGTSVTVSS
VL: DIQMTQSPSSVSASVGDRVTITCKASQAPNTYLSWYQQKPGKAPKLLIYRANRMVDGVPSRFSGSGSGTDFTLTISSLQPEDFATYYCLQYEDFPYTFGGGTKLEIKR
notes: as for B6
B15: Clone 35 (Fab in supernatant) (Fab, V domains shown)
VH: QVQLVQSGAEVKKPGASVKVSCKASGFNINDTYIHWVRQAPGQGLEWMGRIDPANGYTEYAQKFQGRVTMTRDTSTSTVYMELSSLRSEDTAVYYCTTGNLHYALMDYWGQGTSVTVSS
VL: DIQMTQSPSSVSASVGDRVTITCKASQAIATYLSWYQQKPGKAPKLLIYRANRMVDGVPSRFSGSGSGTDFTLTISSLQPEDFATYYCLQFQDFPYTFGGGTKLEIKR
notes: as for B6
B16: Clone 9 (Fab in supernatant) (Fab, V domains shown)
VH: QVQLVQSGAEVKKPGASVKVSCKASGFNLKDTYIHWVRQAPGQGLEWMGKIDPANGNTEYAQKFQGRVTMTRDTSTSTVYMELSSLRSEDTAVYYCTTGNLHYALMDYWGQGTSVTVSS
VL: DIQMTQSPSSVSASVGDRVTITCKASQAIATYLSWYQQKPGKAPKLLIYRANRMYDGVPSRFSGSGSGTDFTLTISSLQPEDFATYYCLQFDDFPYTFGGGTKLEIKR
notes: as for B6
B17: 2-9-1 IgG1 SELF (antibody)
heavy: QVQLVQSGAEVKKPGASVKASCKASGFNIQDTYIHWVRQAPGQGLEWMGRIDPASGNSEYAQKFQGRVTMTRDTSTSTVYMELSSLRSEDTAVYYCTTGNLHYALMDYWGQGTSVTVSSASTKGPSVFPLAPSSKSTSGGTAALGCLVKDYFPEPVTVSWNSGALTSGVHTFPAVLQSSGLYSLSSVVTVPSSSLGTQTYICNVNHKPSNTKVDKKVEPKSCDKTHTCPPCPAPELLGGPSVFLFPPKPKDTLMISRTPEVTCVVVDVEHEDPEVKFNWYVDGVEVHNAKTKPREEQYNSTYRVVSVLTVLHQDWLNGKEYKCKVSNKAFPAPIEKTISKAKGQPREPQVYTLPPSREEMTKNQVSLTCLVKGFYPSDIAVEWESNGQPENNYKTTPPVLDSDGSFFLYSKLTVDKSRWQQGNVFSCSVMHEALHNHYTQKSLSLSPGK
light: DIQMTQSPSSVSASVGDRVTITCKASQPINTYLSWYQQKPGKAPKLLIYRVNRKVDGVPSRFSGSGSGTDFTLTISSLQPEDFATYYCLQYLDFPYTFGGGTKLEIKRTVAAPSVFIFPPSDEQLKSGTASVVCLLNNFYPREAKVQWKVDNALQSGNSQESVTEQDSKDSTYSLSSTLTLSKADYEKHKVYACEVTHQGLSSPVTKSFNRGEC
notes: Subclone of 2-9 with an IgG1 Fc carrying S267E/L328F; also called clone 2-9-1 IgG1 SELF; Clone 2-9 IgG1 SELF
B18: 2-9-2 IgG4 (antibody)
heavy: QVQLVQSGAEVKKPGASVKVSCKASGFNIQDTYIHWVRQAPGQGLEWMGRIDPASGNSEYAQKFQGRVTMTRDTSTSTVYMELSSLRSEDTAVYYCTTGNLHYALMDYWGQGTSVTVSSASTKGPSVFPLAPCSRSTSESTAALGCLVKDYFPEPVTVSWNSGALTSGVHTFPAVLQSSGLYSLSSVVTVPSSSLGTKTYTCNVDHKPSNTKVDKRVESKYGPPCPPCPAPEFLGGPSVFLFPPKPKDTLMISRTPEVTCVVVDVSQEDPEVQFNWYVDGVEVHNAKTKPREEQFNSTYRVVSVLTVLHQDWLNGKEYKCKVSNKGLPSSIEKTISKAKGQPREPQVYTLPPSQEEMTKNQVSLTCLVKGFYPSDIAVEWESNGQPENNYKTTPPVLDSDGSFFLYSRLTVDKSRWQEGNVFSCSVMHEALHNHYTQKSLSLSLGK
light: DIQMTQSPSSVSASVGDRVTITCKASQPINTYLSWYQQKPGKAPKLLIYRVNRKVDGVPSRFSGSGSGTDFTLTISSLQPEDFATYYCLQYLDFPYTFGGGTKLEIKRTVAAPSVFIFPPSDEQLKSGTASVVCLLNNFYPREAKVQWKVDNALQSGNSQESVTEQDSKDSTYSLSSTLTLSKADYEKHKVYACEVTHQGLSSPVTKSFNRGEC
notes: Subclone of 2-9; also called clone 2-9-2 IgG4 wt

target: T1, human CD137-Fc fusion protein (human, UniProt Q07011 24-186, limits assumed); experiment: ELISA, hybridoma supernatant on plates coated with human CD137-Fc fusion protein
T1 construct: also called huCD137
Description: Hybridoma screening. Detection of binding to huCD137 by ELISA: To identify hybridomas secreting anti-human CD137 antibodies, ELISA plates (Corning) were coated with human CD137-Fc fusion protein at 1 μg/ml in PBS overnight at 4° C. […] Thirty microliters of supernatants diluted 1:3 in PBS were added to the plates and incubated for 1-2 hour at ambient temperature. Afterwards, the plates were washed as before, and binding of antibodies was detected through Horseradish peroxidase (HRP)-conjugated goat F(ab′)2 anti-human IgG. The plates were developed with TMB and read at 450 nm.

**Q.** Does B1 bind?
**A.** binds

**Q.** Does B2 bind?
**A.** binds

**Q.** Does B3 bind?
**A.** binds

**Q.** Does B4 bind?
**A.** binds

**Q.** Does B5 bind?
**A.** binds

target: T2, human-CD137 (ELISA antigen of the affinity maturation screen) (human, UniProt Q07011 24-186, limits assumed); experiment: ELISA of Fab in supernatants after phage panning
T2 construct: also called human-CD137 ECD

**Q.** Does B6 bind?
**A.** binds

**Q.** Does B7 bind?
**A.** binds

**Q.** Does B8 bind?
**A.** binds

**Q.** Does B9 bind?
**A.** binds

**Q.** Does B10 bind?
**A.** binds

**Q.** Does B11 bind?
**A.** binds

**Q.** Does B12 bind?
**A.** binds

**Q.** Does B13 bind?
**A.** binds

**Q.** Does B14 bind?
**A.** binds

**Q.** Does B15 bind?
**A.** binds

**Q.** Does B16 bind?
**A.** binds

target: T3, Human CD137-his (human, UniProt Q07011 24-186); experiment: BLI (Octet), second round, antibody captured on AHC sensor
T3 construct: Bought reagent; also called Human CD137-His (Sino Biological, 10041-H08H)
Description: (§1) Biolayer interferometry was used to measure the association and dissociation constants for the binding kinetics of the anti-CD137 antibodies. The binding kinetics was measured on a FortieBio Octet Red 96 at 30° C. and analyzed with the FortieBio Data Analysis 9.0 software. Anti-human-IgG Fc (AHC) sensor was used to capture the anti-CD137 antibodies or control antibodies. A kinetic buffer only well was set as a reference well for subtraction during data processing. Data were fitted with a 1:1 Langmuir model for association and dissociation using Rmax linked global fitting for each antibody-antigen binding. Human CD137-his is a recombinant CD137 antigen with a poly histidine tag fused to C-terminus of human CD137 antigen (Sino Biological, 10041-H08H). Cyno CD137-his is a recombinant CD137 antigen with a poly histidine tag fused to C-terminus of cynomolgus CD137 antigen (Sino Biological, 90847-K02H-100).

**Q.** B17 was tested. Which Kd did it give?
**A.** 6.55 nM

**Q.** And the koff?
**A.** 0.00034 s⁻¹

**Q.** And the kon?
**A.** 52000 M⁻¹ s⁻¹

target: T3, Human CD137-his; experiment: BLI (Octet), third comparison, antibody captured on AHC sensor
Description: as §1

**Q.** For B17, which Kd is on record?
**A.** 11.1 nM

**Q.** What about the koff of the same binder?
**A.** 0.0006 s⁻¹

**Q.** What about the kon of the same binder?
**A.** 54100 M⁻¹ s⁻¹

**Q.** What does the source list for B18?
**A.** Kd: 12.9 nM; koff: 0.000801 s⁻¹; kon: 62200 M⁻¹ s⁻¹
